{"source": "the DeepSol protein solubility set"}
{"assay": "soluble on expression in E. coli; label from the status in PepcDB or PDB records"}
{"sequence": "MNTVIDFSAGVPPAVEVKAAGHIGVMRYISPPRLSWMTAKPATRPQIDRCRSAGVDVGFVWQYGGADNPDTMRGRTGGHADATSAQAKLIELGCPHHPVFFAVDFDISLDQWNATAVHYFKAACEVLGRDRVGIYGHSRVISWAVEDQVIADLGGGKHLAWQTPAWSMGERATEAVLYQGAANVKGPAGINIDVNEVLHHEWGQHPVGETRLEKSQEMELAMKPNPNHRGDPLFLPDVLKAFGVKVQEWDGWRDRGHGDFTVIQGVFAHHTGTDKDIPGYIADHPELGLCSQIHLNRDGTAVIVGAGIAYHAGRGSYPGWPTDNANQVAIGIEAASSGTSPWPPAQLDAYYRTCAAILWYLGKPATPQTLLGHKEYSGAAQGKWDPGGIDMNDFRRNVQHYIDNPPFLAADAAHITKEEDPMIQSLINPAKKFAQSTLISIVDATCWQILVLAKAIAKKQGLDPDQILADAITADREGK", "soluble on expression in E. coli": "not soluble"}
{"sequence": "MNVLFLSISLGSGHIRAAEALQKFVVQKYPKSKTLIVDTFKYINPLIHTVVVDGYLNIVKYVPEIYGGLYRMSEHIKNIDRMSRGFSNLLTPKIHRLIQSFKPSIIVCTHPFPLQMIAHLKKHYNLDVPSIAIVTDFVNHPFWFQNNIEAYIVAHDYIKRDMIECGISEDRIFTYGLPVAPEFLKSIPKEQARKELSLENTLTVLLMGGSLGIGDIENTFKSFAKCKRDIQIIAVAGKNTALKKRLDSLAASFPMPVKIFGYTDSIPMLMDASDFIVTKPGAMTISEALVKRLPALIISPIPGQEERNEQFLVNSGTAVRIYKNTKIDSVLCQVYDNKLRYKQMKEIAGNLANPDSGRNILSLIEKLVNDNEKGLFKYSFNAF", "soluble on expression in E. coli": "soluble"}
{"sequence": "MNVNRLLIVGAGAFGREVHAWLLDWVKLNPGWVIAGFINDGPGSIARFDHYPAVVSSVEGYEPGPEDYLVCAIAKPADKRLVVEKLLGKGARFFTLIHPSVIMGENVVIGQGAVICPSTVLSVDLRIGAFVTLNIGCLVGHDADIGDFSTLSGHCDITGGVVLEEEVFMGTHASVLPNVKVGKQAVVGAGSVAIRNVAAGITVFGVPAKRISGLEHHHHHH", "soluble on expression in E. coli": "not soluble"}
{"sequence": "MNVRNGKASTLRTNDVEPIKDSFSILIIGVDTSTTRASNGNPRSDSLILATFNVKDARVEMTSIPRDSYVHIEDSAKEINKYTKINAAHAYGGPELTMKTVEEEFKIPIDYYVRFDFDAFLKIIDALDGIDVDVPVNFTEQDSKDNQNAITLKKGPQHLNAEQALALARTRHIDSDIERGKRQQLIIKSIVSEATSVSSVSKYSDIIEVVGDNMKTNLTFNQMLSIAKFGMSNKIDIKSLNLKGDSNPMNGIYYYKLNESSVQSISNEFASELGIKQPFPGAAAYSDESSTASNLEHHHHHH", "soluble on expression in E. coli": "soluble"}
{"sequence": "MNYLLIDTSNQPLSVAIMKDNEVIAEKTTDIKKNHSVQLMPEIAEILTESKINKTEITDIVVAEGPGSYTGLRIGVTVAKTLAYALNTNLYGVSSLKALASTVKDSTKLLVPIFDARREAVYAGVYQYQDNELITIIDDTYIPIFELIEKLHQLNQPYVFVGFHIEKIKHLLDSDIVEQLPQASSMKQLIQKPENIHSFTPKYHKLSEAERNWLNQQENNLEHHHHHH", "soluble on expression in E. coli": "not soluble"}
{"sequence": "MNYNIRGENIEVTPALKDHVERKIGKLERYFDHSVDADVNVNLKFYNDKESKVEVTIPMTDLALRSEVHNEDMYNAIDLATNKLERQIRKHKTKVNRKFREQGSPKYLLANGLGSDTDIAVQDDIEEEESLDIVRQKRFNLKPMDSEEAILQMNMLGHNFFVFTNAETNLTNVVYRRNDGKYGLIEPTELEHHHHHH", "soluble on expression in E. coli": "soluble"}
{"sequence": "MPANKLVALTFDDGPDNVLTARVLDKLDKYNVKATFMVVGQRVNDSTAAIIRRMVNSGHEIGNHSWSYSGMANMSPDQIRKSIADTNAVIQKYAGTTPKFFRPPNLETSPTLFNNVDLVFVGGLTANDWIPSTTAEQRAAAVINGVRDGTIILLHDVQPEPHPTPEALDIIIPTLKSRGYEFVTLTELFTLKGVPIDPSVKRMYNSVPLEHHHHHH", "soluble on expression in E. coli": "soluble"}
{"sequence": "MPAVQETIRQVREIDVDQYKYGFETKIKTDKAPKGLNEDIIRFISAKKCEPEWMLKWRLQAFRRWLTMQEPDWARIEYPKIDFQELHYYAAPKNHTGPKSLEEVDPELLATYEKLGIPLKEQEILAGVRKQSDPSTFDESVYASGQVAVDAVFDSVSVVTTFKKELARAGVIFCSISEAIIEHPALINQYLGTVVPVGDNYYAALNAAVFTDGSFVYIPKGVRCPMELSTYFRINERNTGQFERTLIIADEDSYVSYLEGCTAPQRDENQLHAAVVELVALKNAEIKYSTVQNWYPGDKEGNGGIYNFVTKRGDCRGDNSKISWTQIETGSAITWKYPSCLLRGDNSRGEFYSIAVANGHQQIDSGTKMIHLGKNTSSRIVSKGISAGFSNNTYRGQVTAHRKAHNARNFTQCDSLLIGNDCGAHTVPYIEAKNATAQFEHEATTSKISDDQLFYVMQRGIPEEEAIALIVNGFVKEVIQKLPMEFAVEAQKLIGISLEGSVG", "soluble on expression in E. coli": "not soluble"}
{"sequence": "MPDEKDKHEGTWLQWPHEYTYGEEYKKEVEPIWVKMASALTEGEKVHIVAYDQEEKERINNLLTDEGLNMEKIDFFIAPTDDVWARDSGPIFVYDSNKNLKILDPAFNGWGKKTPYKNDAQIRKNVSKQSGIERVDWGKFVLEGGAIELDSNGTALLTRSAVTNKNRNPDLSEKEIEKYISDLGVSNFIWLDGVPNLDITDFHIDGFAKFHNKSTIVTMKEDDLAEWGLSNKDMDTLLDAKNASGQKYKYEYLPLSKEKVALENGKTLDYKGSYINYYIGNTVVLVPNYNDPNDKIANDTIQKLYPDRKVVGIDVRELYKNGGMIHCVTQQQPIALKMAGDPLEHHHHHH", "soluble on expression in E. coli": "soluble"}
{"sequence": "MPESIFKQISLDILKLHRDSVYSLLATSGCNCQVHEAAYVNIDGKYYIALSCEPEVGEVKTGILLIEDESRNLRLSWVGSARELDCKDNAYKRALSALSRKLGRCKDRLHTAVQPFLLELVPEKGRFSVGDEEVWISRNDLVRALYPVGYSMRQAVFQI", "soluble on expression in E. coli": "not soluble"}
{"sequence": "MPESVAVTGGNGRIGKHVLDHLTTAGYRTVNLSRGKCDEAHSDAYIKTDLLDAGELYGALAKSDADTVVHLGMIPTPDQTPGYRTYESNVMSSYHVLEAAGELGIDTVALASSFSAIGGGFEPDLITVDYLPIDEDHRLTPSNPYAMGKQTLEIAADGFARRSTDAPETITSLRFPWVVDDDLAQETFVEADRTLAGLRNSDHFHTQRNTLCGYVHVTDAVALVEAAIEASFAGHERLWVSAPDTSAETPSAELAAELYSDADYRGQTGDDGSPYTALIDTTKAERLLGWEPTWNWRQLA", "soluble on expression in E. coli": "not soluble"}
{"sequence": "MPETTYKYEDNEVKKKKTIFNENGYIIEELHYDKNRKEPYSYKKRYNDKGLLVESHEHTYTYEYDKNGNLVQIKRPKNSAYGGLERTTYNKAGKIIRTQTFTQNQYDKAGVKITDDSNYLKDKNGELYQSLTDYSYIYNKDGKLQEIRDNVFSSGTIKYSYEYEDGLYVKTAELVTQKFVTYYDKAGNEVKYKWITYSLGPDKPRTQLHLVFKENKRDKYGNLIYQVANRIEELDPEKKGTDVGIYEKKIIEYEYYELEHHHHHH", "soluble on expression in E. coli": "not soluble"}
{"sequence": "MPFENAPHLVFWEVTKACPLTCKHCRANAIDKPLPGELNTEESRKLLEDIARFGKVVIVFTGGDPLSRSDIFELMEYAKSLGLVVSIAPSPSHRLDDETMKIISNYARYMSISLDGATSQTHDWLRGLGSYKYALRGIELGLKYGIQVQVNTLVWKKSYSELPFVVKLLKEMGVKIWEVFFLIPVGRGTTELDIPRDKYKDVIDFLVEATRYDLIVRTVEAPFFRRAKLEYTPATTNDNELVSTLRELLGEPVKEADKSILPTRDGAGVIFIGYNGDVYPSGFLPLYLGNVKKESLVDIYRKSEVLKKIKDSRFEGKCGICKYNNICGGSRARAFAVYNNPFAEDPMCPY", "soluble on expression in E. coli": "not soluble"}
{"sequence": "MPFPFGKSHKSPADIVKNLKESMAVLEKQDISDKKAEKATEEVSKNLVAMKEILYGTNEKEPQTEAVAQLAQELYNSGLLSTLVADLQLIDFEGKKDVAQIFNNILRRQIGTRTPTVEYICTQQNILFMLLKGYESPEIALNCGIMLRECIRHEPLAKIILWSEQFYDFFRYVEMSTFDIASDAFATFKDLLTRHKLLSAEFLEQHYDRFFSEYEKLLHSENYVTKRQSLKLLGELLLDRHNFTIMTKYISKPENLKLMMNLLRDKSRNIQFEAFHVFKVFVANPNKTQPILDILLKNQAKLIEFLSKFQNDRTEDEQFNDEKTYLVKQIRDLKRPAQQEA", "soluble on expression in E. coli": "soluble"}
{"sequence": "MPFPSRSLRATLCSAPVRMPDAAQKNAATPPPPLALSKPSPSPWAALLTPSSLSFPCSPSLPTYRRTRTAMHGSPPARGLQRRIKVPLMASAPSSIAFDIAAPTAAAWIARWMPVASPRRCSPLLRLCGDYPRCAVAAALSCQRLWIRSTSPLACSTAAGQTRSTPKMTKRPRRGIRRPSRAAGRLGSDTEEAENAALCQRHPEEHAGIFQSQHIKPFPVRAAIDIGTGGVVSLCVARVDATVGAIQKLMYQTQLPLHLEALPTSMSSPSSPLSASSSSFTLSERTMEDITNKVHILQGAMRRNAFEGLSERAAVLSWPLCLARNAGQLAERLTKEFKVDVRVLGADFDVEWPPSVARFLAGEGASTPETADDSRSTVDKGTRDSVTRKGAENTLKSLLCAARAPTTSGLARHKRKVTAPPSSGSASSRGAMDARTQLDTLAFLAHAAVSQCVAPQRLLVLHEDPQRGLRLLGLGTSAADDIADLLDDATTPEERQSLYAIAHGPGPSLLEAGERTPSSGKQVFVAAHAQSRQQASLLPTLSSMRDCQGSADDGTSSDAAPAAASLMRLVEHPLPVDVASAHRYCITQIQRRPLESYGLHASSPNPLLADEFAALRGLLVGMIQPTLPAWVRRKAQLGGVLCGTSHNGGLLNLAARVSQQTHVSLEHLEVHAQYHFCGLTDVLLAESFPNPFLVLPSVALTAAVLRSLESPRITYLPEVSVAAALLVQPSLWLHARATEVRARLARDPFYASTTAAQRGRMFGRPHRKDNPTAAPDATWVKEGRWNPISFSESMRGT", "soluble on expression in E. coli": "not soluble"}
{"sequence": "MPFRPQVIIGELMKTFGTNTNALPMSREETKTVEKFTRILKDAETDDLLIQSDDEEEVFGGIVDEEDWKPDDDDPSACVVPDKVNFSSGAAIDVAMVHSAVEFMTDVRTKKLRSFASMQRRYRFIKTQHDMQKLRVFAKNNEIQCSRVSQFSTLSGLLRTKVFEAIDDRISIDKFTLRRLAVQLNDEHVHIEGFQASDGWLKKWKKTNGLVSRHVTTFITRANYVNKELTEQAAKKFVEEVKAELATLDPDVVYNCDQSGFTKEQYCKRTLAPKGVKRVERLVQSKDALTHSYTILPMLSASGKLAPKLYVVLQEKGGKFPKKGHFSPDNLIIRANTSHIMNKQLMVDWVESAVCDPSMPTEVVLLLDAWPAWKNEGDVQAAALSGNTVHVRSIPPGATSFIQPCDLYFFCPLKNFVKKVNAYIIYSGITFKTSERDNLLRVISAVYRVFRAPIFQSCWKYGWIQGGYIDDQHVKVETPSKFCFKVSGYCSQKKTRDTMCQDTAFLLCPYCKKVLCFNHWVGCGFPAHKCKC", "soluble on expression in E. coli": "not soluble"}
{"sequence": "MPFTPSEIKNKEFTRVKNGLEPTEVANYLEQLSNEIERLKEDKKQLEKVIEDRDSNIKSYKDVHQSVSDALIQAQKVGEETKQAATKEAEAVLSKAQVQADSIVNDAIEKARRLAFQTEDMKRQSKVFRSRFRMLVEAQLDLLKSEDWDYLLNYDLDAEQVTLEDIHHLHDNDLTPEERAMKQKQNQEISANQPSTSSSESVSQSNANNESSQSTSNN", "soluble on expression in E. coli": "soluble"}
{"sequence": "MPFVRPLVTVVRAGRHSYSAGLQLQQRLARSNQILNPPAEFRNYLVLQEHDPVYTVGLRTKDYTAQDEDRLRRLGADFHRTDRGGLITFHGPGQLVAYPILHLGQFVPSIRWYVATLERMVVEACHQMGISSAKATKDTGIWVGDNKICAIGIHGSRYVTTHGIGLNCCTDLQWFEHIVPCGIEGKGVTSLSKELDRHFPVEEASGALLNSFAKVFECRLQEHAKKPASSAEIG", "soluble on expression in E. coli": "not soluble"}
{"sequence": "MPGNSGNDRSVVVGRVSGAFGVRGWVKAVSFTDPPVNLVGYRPWTLRRGDAERRADVLEGREHGNAVIVRLQGVDTREQAEALKGFEVTVRRSQLPPPAPGEYYRVDLVGLKVVNLGETVLGEVVDVMETGANDVLVVQGDRERLLPFVQGVFVKSVNLEESRIVVDWDPGFLEHHHHHH", "soluble on expression in E. coli": "not soluble"}
